Measured values: patent US20230106247A1 (L AND L BIO CO LTD NINGBO CHINA, published 2023)
Like-named read-outs stand apart in the source and are kept apart here.

Legend:
human Sirpα-V1-hFc [1] = target: T1, human Sirpα-V1-hFc (human, UniProt P78324 31-373); assay: blocking ELISA, competitor CD47-his
T1 construct: range 31-373; also called hSirpα (dimer); hSirpα-V1-hFc (dimer); not shown: human IgG1 Fc region at the C-terminus
Method: (§1) The recombinant proteins such as human Sirpα-V1-hFc/Sirpα-V1-his were diluted to concentrations of 5 μg/mL or 2 μg/mL respectively with a PBS buffer at pH 7.4, and then added into a 96-well ELISA plate (Corning, CLS3590-100EA) at a volume of 50 μL/well, and placed in an incubator at 37° C. for 2 hours. After the liquid was discarded, the wells were added with a blocking solution of 5% skimmed milk (skimmed milk powder available from Bright Dairy) diluted with PBS at 230 μL/well, and incubated in an incubator at 37° C. for 3 hours, or placed overnight at 4° C. (for 16-18 hours) for blocking. […] The plate was washed for 5 times, added with 50 μL/well of streptavidin-HRP (GenScript, M00091) or anti-his-HRP secondary antibody (GenScript, A00612) diluted at 1:1000, incubated at 37° C. for 1 hour, and then washed with PBST for 5 times. Each well was added with 50 μL of TMB (Surmodic, Cat #: TTMB-1000-01) for color development, and added with 50 μL/well of 1 M H₂SO₄ to stop the reaction. The readings on a microplate reader (MultiskanGO Thermo, Model 51119200) were subjected to data analysis by GraphPad prism 5. […]

human Sirpα-V1-his [2] = target: T2, human Sirpα-V1-his (human, UniProt P78324 31-373); assay: ELISA
T2 construct: range 31-373; Bought (Sino Biological 11612-H08H) or expressed in-house; also called hSirpα-V1; hSirpα-V1-his

human Sirpα-V1-hFc [3] = target: T1, human Sirpα-V1-hFc; assay: blocking ELISA, competitor CD47-his; remark: listed apart in the source
Method: (§2) The recombinant proteins such as human Sirpα-V1-hFc/Sirpα-V1-his were diluted to concentrations of 5 μg/mL or 2 μg/mL respectively with a PBS buffer at pH 7.4, and then added into a 96-well ELISA plate (Corning, CLS3590-100EA) at a volume of 50 μL/well, and placed in an incubator at 37° C. for 2 hours. After the liquid was discarded, the wells were added with a blocking solution of 5% skimmed milk (skimmed milk powder available from Bright Dairy) diluted with PBS at 230 μL/well, and incubated in an incubator at 37° C. for 3 hours, or placed overnight at 4° C. (for 16-18 hours) for blocking. […] The plate was washed for 5 times, added with 50 μL/well of streptavidin-HRP (GenScript, M00091) or anti-his-HRP secondary antibody (GenScript, A00612) diluted at 1:1000, incubated at 37° C. for 1 hour, and then washed with PBST for 5 times. Each well was added with 50 μL of TMB (Surmodic, Cat #: TTMB-1000-01) for color development, and added with 50 μL/well of 1 M H₂SO₄ to stop the reaction. The readings on a microplate reader (MultiskanGO Thermo, Model 51119200) were subjected to data analysis by GraphPad prism 5.

human Sirpα-V1-his [4] = target: T2, human Sirpα-V1-his; assay: blocking ELISA, competitor CD47-hFc
Method: as §2

[5] = target: T3, human T cells (expressing Sirpγ) (human, UniProt Q9P1W8 29-387); assay: flow cytometry on PBMC
T3 construct: whole, on cells; The target as printed is the cell; also called human PBMCs (T cells)
T3 sequence (Q9P1W8 29-387): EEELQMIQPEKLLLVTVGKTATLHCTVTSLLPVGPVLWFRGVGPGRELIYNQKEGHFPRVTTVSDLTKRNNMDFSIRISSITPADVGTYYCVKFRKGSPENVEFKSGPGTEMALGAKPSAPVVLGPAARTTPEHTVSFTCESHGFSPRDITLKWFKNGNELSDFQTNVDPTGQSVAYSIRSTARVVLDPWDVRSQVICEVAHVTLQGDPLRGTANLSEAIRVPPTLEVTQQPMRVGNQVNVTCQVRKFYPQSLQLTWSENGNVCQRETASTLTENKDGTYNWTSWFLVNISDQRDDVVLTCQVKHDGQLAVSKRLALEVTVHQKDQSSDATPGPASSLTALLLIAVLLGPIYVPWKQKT

human Sirpα-V1-his [6] = target: T2, human Sirpα-V1-his; assay: blocking ELISA, competitor CD47-hFc; remark: listed apart in the source
Method: as §1

[7] = target: T4, human Sirpα-V1 on CHO-K1 cells (CHO-K1 hSirpα+ cell line) (human, UniProt P78324 31-504); assay: cell ELISA on CHO-K1 hSirpα+ cells
T4 construct: whole, on cells; also called hSirpα-v1+ cell strain
Excerpt: The readings on a microplate reader (MultiskanGO Thermo, Model 51119200) were subjected to data analysis by GraphPad prism 5.
The light and heavy chain variable region sequences of the aforementioned antibody of the present disclosure and the constant regions of different IgG types, for example human IgG1 (hIgG1), human IgG2 (hIgG2), human IgG3 (hIgG3) or human IgG4 (hIgG4), human light chain κ and λ types; murine mIgG1, mIgG2 or mIgG3, murine light chain κ and λ types, etc. were recombined, expressed and purified to obtain an entire human-murine chimeric antibody and a murine antibody.

Cyno Sirpα L932 = target: T5, Cyno Sirpα L932 (cynomolgus); assay: ELISA
T5 chain: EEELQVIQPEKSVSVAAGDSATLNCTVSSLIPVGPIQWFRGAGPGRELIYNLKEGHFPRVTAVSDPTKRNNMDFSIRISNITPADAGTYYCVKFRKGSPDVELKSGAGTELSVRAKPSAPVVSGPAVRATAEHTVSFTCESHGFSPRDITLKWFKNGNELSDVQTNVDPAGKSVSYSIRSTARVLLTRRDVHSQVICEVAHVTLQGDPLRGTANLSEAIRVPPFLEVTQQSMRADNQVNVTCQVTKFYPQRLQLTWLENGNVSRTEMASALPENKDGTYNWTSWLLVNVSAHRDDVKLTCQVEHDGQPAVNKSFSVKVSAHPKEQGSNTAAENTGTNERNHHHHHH

Cyno Sirpα L937 = target: T6, Cyno Sirpα L937 (cynomolgus); assay: ELISA
T6 construct: also called RB3-5; Cyno Sirpα polymorphism 4 (L937)
T6 chain: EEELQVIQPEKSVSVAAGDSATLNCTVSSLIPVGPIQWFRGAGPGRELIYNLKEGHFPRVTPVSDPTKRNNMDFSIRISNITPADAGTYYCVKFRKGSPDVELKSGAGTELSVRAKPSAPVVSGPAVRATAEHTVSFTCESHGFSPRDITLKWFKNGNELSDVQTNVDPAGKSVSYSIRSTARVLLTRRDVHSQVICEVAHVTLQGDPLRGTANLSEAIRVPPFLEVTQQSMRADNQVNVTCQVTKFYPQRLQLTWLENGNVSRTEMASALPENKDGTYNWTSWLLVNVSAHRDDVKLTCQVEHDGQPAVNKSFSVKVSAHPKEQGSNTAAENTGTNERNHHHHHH

Cyno Sirpα L933 = target: T7, Cyno Sirpα L933 (cynomolgus); assay: ELISA
T7 construct: extracellular domain; also called Cyno Sirpα polymorphism 2 (L933)

Cyno Sirpα L936 = target: T8, Cyno Sirpα L936 (cynomolgus); assay: ELISA
T8 construct: also called RB3-3; Cyno Sirpα polymorphism 3 (L936)
T8 chain: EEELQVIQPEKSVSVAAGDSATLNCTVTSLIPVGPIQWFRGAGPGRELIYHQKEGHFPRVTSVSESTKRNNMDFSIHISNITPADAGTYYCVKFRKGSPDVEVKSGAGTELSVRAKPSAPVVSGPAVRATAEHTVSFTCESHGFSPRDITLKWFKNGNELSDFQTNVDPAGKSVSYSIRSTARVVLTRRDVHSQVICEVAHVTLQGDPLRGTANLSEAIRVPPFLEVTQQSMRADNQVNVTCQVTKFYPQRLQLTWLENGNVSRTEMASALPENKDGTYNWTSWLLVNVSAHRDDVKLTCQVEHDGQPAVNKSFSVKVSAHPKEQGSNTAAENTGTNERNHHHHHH

human Sirpα-V1-his [8] = target: T2, human Sirpα-V1-his; assay: ELISA; remark: listed apart in the source
Method: (§3) Different antigens (recombinant proteins) such as the human Sirpα-V1-hFc, Sirpα-V1-his, Sirpα-V2-his, Sirpβ-his, Sirpγ-his, monkey Sirpα-his (cynoSirpα-his) or NOD-mSirpα-his described in Example 1 were diluted with a PBS buffer at pH7.4 to concentrations of 1 μg/mL, 2 μg/mL or 5 μg/mL, added into a 96-well ELISA plate (Corning, CLS3590-100EA) at a volume of 50 μL/well, and placed in an incubator at 37° C. for 2 hours. After the liquid was discarded, the wells were added with a blocking solution of 5% skimmed milk (skimmed milk powder available from Bright Dairy) diluted with PBS at 230 μL/well, and incubated in an incubator at 37° C. for 3 hours, or placed overnight at 4° C. (for 16-18 hours) for blocking. […] The plated was washed with PBST for 5 times, then added with 50 μL/well of TMB chromogenic substrate (KPL, Cat #: 52-00-03), incubated at room temperature for 10-15 min, added with 50 μL/well of 1 M H₂SO₄ to stop the reaction, and read by a […] Go microplate reader (ThermoFisher, Cat #: 51119200) for the absorbance value at 450 nm, and then a clone with high binding activity was selected or a EC₅₀ value was calculated according to the OD value. […]

human Sirpα-V2-his = human Sirpα-V2-his (human); assay: ELISA
Sequence of human Sirpα-V2-his (human) (chain, as listed by the source): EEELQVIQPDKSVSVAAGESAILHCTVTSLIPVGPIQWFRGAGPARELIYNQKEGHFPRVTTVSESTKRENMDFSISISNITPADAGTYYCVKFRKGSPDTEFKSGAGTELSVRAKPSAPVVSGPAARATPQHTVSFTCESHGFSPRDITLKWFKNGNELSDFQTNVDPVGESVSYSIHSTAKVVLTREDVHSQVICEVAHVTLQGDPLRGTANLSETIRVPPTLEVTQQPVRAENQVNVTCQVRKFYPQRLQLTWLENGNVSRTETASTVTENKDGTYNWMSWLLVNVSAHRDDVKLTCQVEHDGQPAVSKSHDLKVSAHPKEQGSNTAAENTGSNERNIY
Method: as §3

B1: human-murine chimeric antibody mab14c (antibody, human IgG4 S228P, kappa, V domains shown)
VH: QVHLQQPGAELVKPGASVKLSCKASGYNFNIYWINWVKQRPGQGLEWIGNIYPSSISTNYNEKFKTKATLTVDKSSNTVYMQFSSLTSEDSAVYYCARSEGTYYGGRYEGDWFGYWGQGTLVTVSA
VL: DIQMTQTTSSLSASLGDRVTISCRASQDIRNYLNWYQQKPDGTVKLLIYFTSTLHSGVPSRFSGSGSGTDYSLTISNLEQEDIATYFCQQGNTLPWTFGGGTKLEIKR
notes: hIgG4, κ
Human Sirpα-V1-hFc [1]
  IC50: 5700 pM
Human Sirpα-V1-his [2]
  EC50: 93 pM
Human Sirpα-V1-hFc [3]
  IC50: 5480 pM
Human Sirpα-V1-his [4]
  IC50: 9980 pM
[5]
  binding result: no binding (tested: 10 µg/mL)
Human Sirpα-V1-his [6]
  IC50: 5540 pM
[7]
  EC50: 290 pM
Cyno Sirpα L932
  EC50: 100 pM
Cyno Sirpα L937
  EC50: 99 pM
Cyno Sirpα L933
  EC50: 140 pM
Cyno Sirpα L936
  EC50: 99 pM
Human Sirpα-V1-his [8]
  EC50: 160 pM
Human Sirpα-V2-his
  EC50: 140 pM
